Measured values: patent publication US20250154283A1 (published 2025)
Numbering of substitutions follows the chain as printed. Each block holds one binder with its values, some of them ahead of it.

Experiments:
VWF in human plasma [1] = target: T1, VWF in human plasma (human, UniProt P04275 764-2813); test: collagen type III binding ELISA; human plasma (5 donors) 17 h 37 °C with 600 nM antibody; VWF bound to collagen relative to untreated plasma; ligand collagen type III
T1 construct: Endogenous VWF in donor plasma, not purified; multimeric; also called VWF in plasma; VWF in platelet rich plasma
Method: Following incubation, collagen binding was determined relative to untreated plasma.

VWF in human plasma [2] = target: T1, VWF in human plasma; test: flow cytometry, FITC anti-VWF on platelets; human PRP (2 donors), 0.5 mg/ml ristocetin, 600 nM antibody; relative to the same plasma without antibody; receptor platelet gp1b
Method: PRP was prepared by centrifuging the blood at 250 g for 15 min. […] Sample analysis was performed on a flow cytometer. Using forward (FSC) and sideward (SSC) scatter pattern, a gate was placed on the platelets.

[3] = target: T2, His-StrepTagII-HRV3C-human VWF-CK-HA-tag (human); test: solution-phase equilibrium binding, free antibody by ELISA; apparent Kd; pH 5.5; mean ± SD, n=2
T2 construct: it begins with the VWF signal peptide, whose limits were marked only by underlining that is lost in the text, so it was not cut off; The CK domain forms disulfide-linked homodimers (CK dimer); also called recombinant human CK domain; Human CK
T2 chain: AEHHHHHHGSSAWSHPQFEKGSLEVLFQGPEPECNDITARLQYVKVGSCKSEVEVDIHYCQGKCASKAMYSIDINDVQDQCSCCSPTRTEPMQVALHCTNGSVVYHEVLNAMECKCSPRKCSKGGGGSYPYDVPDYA
Method: (§1) Following incubation for 30 min at room temperature to establish equilibrium, unbound antibody was quantified by ELISA using the immobilized human CK domain for capture and HRP-conjugated goat anti-human IgG Fc antibody for detection.
(§2) Following a single wash of the plate with 200 μL of wash buffer (TBS containing 0.05% (v/v) Tween-20 and 5 mM CaCl₂), the plate was blocked by incubation with 200 μL blocking buffer (TBS containing 5 mM CaCl₂ and 1% (w/w) BSA) for 1 hour at room temperature. […] Incubation lasted 3 min and was followed by 5-min incubation with 100 μL HRP-conjugated goat anti-human IgG Fc antibody for detection (1 mg/mL stock diluted 1:20,000 in blocking buffer). Before and after addition of a detection antibody, the plate was washed 5 times with 200 μL wash buffer. A chromogenic horseradish peroxidase (HRP) substrate (100 μL) was then added and following color development for 3 min, 100 μL ELISA stop solution were added to quench the reaction. Absorbance was measured at 450 nm with subtraction of the absorbance at 620 nm.
(§3) The standard curve prepared with free antibody was fitted to a Sigmoidal four-parameter logistic (4PL) model.

VWF in human plasma [4] = target: T1, VWF in human plasma; test: VWF:FVIIIB enzyme immunoassay; human plasma (5 donors) 17 h 37 °C with 200 nM antibody; FVIII bound to captured VWF relative to untreated plasma; ligand FVIII
VWF in human plasma [5] = target: T1, VWF in human plasma; test: VWF:FVIIIB enzyme immunoassay; human plasma (5 donors) 17 h 37 °C with 600 nM antibody; FVIII bound to captured VWF relative to untreated plasma; ligand FVIII
[6] = target: T2, His-StrepTagII-HRV3C-human VWF-CK-HA-tag; test: solution-phase equilibrium binding, free antibody by ELISA; apparent Kd; pH 7.4; mean ± SD, n=2
Method: as §1, §2, §3

human plasma-derived VWF = target: T3, human plasma-derived VWF (human, UniProt P04275 764-2813); test: as above
T3 construct: multimeric; also called pd-VWF; Human VWF
Method: as §1, §2, §3

[7] = target: T4, His-StrepTagII-HRV3C-cyno VWF-CK-HA-tag (cynomolgus monkey); test: as above
T4 construct: it begins with the VWF signal peptide, whose limits were marked only by underlining that is lost in the text, so it was not cut off; The CK domain forms disulfide-linked homodimers; also called recombinant cyno CK domain; Cyno CK
T4 chain: T2 chain with N35S, A95P, E113Q, K115E
Method: as §1, §2, §3

[8] = target: T5, human plasma-derived von Willebrand Factor (VWF) (human, UniProt P04275 764-2813); test: VWF:FVIIIB enzyme immunoassay, FVIII binding capacity of plasma VWF after incubation with 200 or 600 nM antibody; FVIII as the partner tested
T5 construct: also called pd-VWF; human plasma-derived VWF

[9] = target: T6, His-StrepTagII-HRV3C-cyno VWF-CK-HA-tag (cynomolgus monkey); test: solution-phase equilibrium binding, unbound antibody by ELISA
T6 construct: also called recombinant cyno CK domain; cyno CK
T6 chain: T2 chain with N35S, A95P, E113Q, K115E

- Collagen binding (% control) (VWF in human plasma [1]): 108 % control
- Platelet binding (% control) (VWF in human plasma [2]): 101 % control
- Kd [3]: 32.3 nM
- VWF:FVIII level (% of control) (VWF in human plasma [4]): 84.5 % of control
- VWF:FVIII level (% of control) (VWF in human plasma [5]): 85.8 % of control
- Kd [6]: 4.3 nM
- Kd (human plasma-derived VWF): 5.3 nM
- Kd [7]: 11 nM
B1: Lib1_P1_G3 OA (antibody, human IgG4 S228P, kappa, F234A L235A)
heavy: QVQLVQSGAEVKKPGASVKVSCKVSGYTSRQYIHWVRQAPGKGLEWMGWVTPIFGTTNYAQKFQGRVTMTEDTSTDTAYMELSSLKSEDTAVYYCAREWTGTTAFDIWGQGTLVTVSSASTKGPSVFPLAPCSRSTSESTAALGCLVKDYFPEPVTVSWNSGALTSGVHTFPAVLQSSGLYSLSSVVTVPSSSLGTKTYTCNVDHKPSNTKVDKRVESKYGPPCPPCPAPEAAGGPSVFLFPPKPKDTLMISRTPEVTCVVVDVSQEDPEVQFNWYVDGVEVHNAKTKPREEQFNSTYRVVSVLTVLHQDWLNGKEYKCKVSNKGLPSSIEKTISKAKGQPREPQVYTLPPSQEEMTKNQVSLSCAVKGFYPSDIAVEWESNGQPENNYKTTPPVLDSDGSFFLVSRLTVDKSRWQEGNVFSCSVMHEALHNHYTQKSLSLSLG
chain: ESKYGPPCPPCPAPEAAGGPSVFLFPPKPKDTLMISRTPEVTCVVVDVSQEDPEVQFNWYVDGVEVHNAKTKPREEQFNSTYRVVSVLTVLHQDWLNGKEYKCKVSNKGLPSSIEKTISKAKGQPREPQVYTLPPSQEEMTKNQVSLWCLVKGFYPSDIAVEWESNGQPENNYKTTPPVLDSDGSFFLYSRLTVDKSRWQEGNVFSCSVMHEALHNHYTQKSLSLSLG
light: DIQMTQSPSSVSASVGDRVTITCRASQDIGHYLAWYQQKPGKAPKLLIYAASNRASGVPSRFSGSGSGTDFTLTISSLQPEDFANYYCQQGYSAPYGFGGGTKVEIKRTVAAPSVFIFPPSDEQLKSGTASVVCLLNNFYPREAKVQWKVDNALQSGNSQESVTEQDSKDSTYSLSSTLTLSKADYEKHKVYACEVTHQGLSSPVTKSFNRGEC

- VWF:FVIII level (% of untreated donor-matched plasma) [8]: > 80%
- fold change in Kd, cyno CK against human CK [9]: < 2 fold
B2: Lib1_P1_G3 OA (antibody, human IgG4 S228P, kappa, F234A L235A)
heavy: B1 heavy
chain: B1 chain
light: B1 light
notes: monovalent one-arm human IgG4

- VWF:FVIII level (% of untreated donor-matched plasma) [8]: > 80%
- fold change in Kd, cyno CK against human CK [9]: < 2 fold
B3: Lib1_P1_A6 OA (antibody, human IgG4 S228P, kappa, F234A L235A)
heavy: QVQLVQSGAEVKKPGASVKVSCKVSGSTFSNYAIHWVRQAPGKGLEWMGGIVPLSGTAIYAQKFQGRVTMTEDTSTDTAYMELSSLKSEDTAVYYCARDQGESSGWYAIYYGMDVWGQGTTVTVSSASTKGPSVFPLAPCSRSTSESTAALGCLVKDYFPEPVTVSWNSGALTSGVHTFPAVLQSSGLYSLSSVVTVPSSSLGTKTYTCNVDHKPSNTKVDKRVESKYGPPCPPCPAPEAAGGPSVFLFPPKPKDTLMISRTPEVTCVVVDVSQEDPEVQFNWYVDGVEVHNAKTKPREEQFNSTYRVVSVLTVLHQDWLNGKEYKCKVSNKGLPSSIEKTISKAKGQPREPQVYTLPPSQEEMTKNQVSLSCAVKGFYPSDIAVEWESNGQPENNYKTTPPVLDSDGSFFLVSRLTVDKSRWQEGNVFSCSVMHEALHNHYTQKSLSLSLG
chain: B1 chain
light: DIQMTQSPSSVSASVGDRVTITCRASQGIGTWLAWYQQKPGKAPKLLIYGSSSRASGVPSRFSGSGSGTDFTLTISSLQPEDFANYYCQQSYGKPTFGGGTKVEIKRTVAAPSVFIFPPSDEQLKSGTASVVCLLNNFYPREAKVQWKVDNALQSGNSQESVTEQDSKDSTYSLSSTLTLSKADYEKHKVYACEVTHQGLSSPVTKSFNRGEC
notes: monovalent one-arm human IgG4; also called monovalent (one-arm) Lib1_P1_A6

- VWF:FVIII level (% of untreated donor-matched plasma) [8]: > 80%
- fold change in Kd, cyno CK against human CK [9]: < 2 fold
B4: Lib1_P1_A9 OA (antibody, human IgG4 S228P, kappa, F234A L235A)
heavy: QVQLVQSGAEVKKPGASVKVSCKVSGDTLSSYGIHWVRQAPGKGLEWMGGSIPSFGTAIYAQKFQGRVTMTEDTSTDTAYMELSSLKSEDTAVYYCTSEGPWLPFFSFDYWGQGTLVTVSSASTKGPSVFPLAPCSRSTSESTAALGCLVKDYFPEPVTVSWNSGALTSGVHTFPAVLQSSGLYSLSSVVTVPSSSLGTKTYTCNVDHKPSNTKVDKRVESKYGPPCPPCPAPEAAGGPSVFLFPPKPKDTLMISRTPEVTCVVVDVSQEDPEVQFNWYVDGVEVHNAKTKPREEQFNSTYRVVSVLTVLHQDWLNGKEYKCKVSNKGLPSSIEKTISKAKGQPREPQVYTLPPSQEEMTKNQVSLSCAVKGFYPSDIAVEWESNGQPENNYKTTPPVLDSDGSFFLVSRLTVDKSRWQEGNVFSCSVMHEALHNHYTQKSLSLSLG
chain: B1 chain
light: DIQMTQSPSSVSASVGDRVTITCRASQGISRNLAWYQQKPGKAPKLLIYKASSLASGVPSRFSGSGSGTDFTLTISSLQPEDFANYYCQQSFSTPVTFGGGTKVEIKRTVAAPSVFIFPPSDEQLKSGTASVVCLLNNFYPREAKVQWKVDNALQSGNSQESVTEQDSKDSTYSLSSTLTLSKADYEKHKVYACEVTHQGLSSPVTKSFNRGEC
notes: also called monovalent (one-arm) Lib1_P1_A9
